Source: patent US11471462B2, “Compositions and methods for detecting and treating diabetes” (THE BROAD INSTITUTE, INC., priority 2016, dated 2022)

B1: PSMA3 (protein)
chain: SSIGTGYDLSASTFSPDGRVFQVEYAMKAVENSSTAIGIRCKDGVVFGVEKLVLSKLYEEGSNKRLFNVDRHVGMAVAGLLADARSLADIAREEASNFRSNFGYNIPLKHLADRVAMYVHAYTLYSAVRPFGCSFMLGSYSVNDGAQLYMIDPSGVSYGYWGCAIGKARQAAKTEIEKLQMKEMTCRDIVKEVAKIIYIVHDEVKDKAFELELSWVGELTNGRHEIVPKDIREEAEKYAKESLKEEDESDDDNM
B2: AUP1 (protein)
chain: MELPSGPGPERLFDSHRLPGDCFLLLVLLLYAPVGFCLLVLRLFLGIHVFLVSCALPDSVLRRFVVRTMCAVLGLVARQEDSGLRDHSVRVLISNHVTPFDHNIVNLLTTCSTPLLNSPPSFVCWSRGFMEMNGRGELVESLKRFCASTRLPPTPLLLFPEEEATNGREGLLRFSSWPFSIQDVVQPLTLQVQRPLVSVTVSDASWVSELLWSLFVPFTVYQVRWLRPVHRQLGEANEEFALRVQQLVAKELGQTGTRLTPADKAEHMKRQRHPRLRPQSAQSSFPPSPGPSPDVQLATLAQRVKEVLPHVPLGVIQRDLAKTGCVDLTITNLLEGAVAFMPEDITKGTQSLPTASASKFPSSGPVTPQPTALTFAKSSWARQESLQERKQALYEYARRRFTERRAQEAD
B3: MAGED1 (protein)
chain: MAQKMDCGAGLLGFQNPDACRAVCHPLPQPPASTLPLSAFPTLCDPPYSQLRDPPAVLSCYCTPLGASPAPAEASVEDSALLMQTLMEAIQISEAPPTNQATAAASPQSSQPPTANEMADIQVSAAAARPKSAFKVQNATTKGPNGVYDFSQAHNAKDVPNTQPKAAFKSQNATPKGPNAAYDFSQAATTGELAANKSEMAFKAQNATTKVGPNATYNFSQSLNANDLANSRPKTPFKAWNDTTKAPTADTQTQNVNQAKMATSQADIETDPGISEPDGATAQTSADGSQAQNLESRTIIRGKRTRKINNLNVEENSSGDQRRAPLAAGTWRSAPVPVTTQNPPGAPPNVLWQTPLAWQNPSGWQNQTARQTPPARQSPPARQTPPAWQNPVAWQNPVIWPNPVIWQNPVIWPNPIVWPGPVVWPNPLAWQNPPGWQTPPGWQTPPGWQGPPDWQGPPDWPLPPDWPLPPDWPLPTDWPLPPDWIPADWPIPPDWQNLRPSPNLRPSPNSRASQNPGAAQPRDVALLQERANKLVKYLMLKDYTKVPIKRSEMLRDIIREYTDVYPEIIERACFVLEKKFGIQLKEIDKEEHLYILISTPESLAGILGTTKDTPKLGLLLVILGVIFMNGNRASEAVLWEALRKMGLRPGVRHPLLGDLRKLLTYEFVKQKYLDYRRVPNSNPPEYEFLWGLRSYHETSKMKVLRFIAEVQKRDPRDWTAQFMEAADEALDALDAAAAEAEARAEARTRMGIGDEAVSGPWSWDDIEFELLTWDEEGDFGDPWSRIPFTFWARYHQNARSRFPQTFAGPIIGPGGTASANFAANFGAIGFFWVE
B4: ADCK4 (protein)
chain: MWLKVGGLLRGTGGQLGQTVGWPCGALGPGPHRWGPCGGSWAQKFYQDGPGRGLGEEDIRRAREARPRKTPRPQLSDRSRERKVPASRISRLANFGGLAVGLGLGVLAEMAKKSMPGGRLQSEGGSGLDSSPFLSEANAERIVQTLCTVRGAALKVGQMLSIQDNSFISPQLQHIFERVRQSADFMPRWQMLRVLEEELGRDWQAKVASLEEVPFAAASIGQVHQGLLRDGTEVAVKIQYPGIAQSIQSDVQNLLAVLKMSAALPAGLFAEQSLQALQQELAWECDYRREAACAQNFRQLLANDPFFRVPAVVKELCTTRVLGMELAGGVPLDQCQGLSQDLRNQICFQLLTLCLRELFEFRFMQTDPNWANFLYDASSHQVTLLDFGASREFGTEFTDHYIEVVKAAADGDRDCVLQKSRDLKFLTGFETKAFSDAHVEAVMILGEPFATQGPYDFGSGETARRIQDLIPVLLRHRLCPPPEETYALHRKLAGAFLACAHLRAHIACRDLFQDTYHRYWASRQPDAATAGSLPTKGDSWVDPS
B5: XPO5 (protein)
chain: AMDQVNALCEQLVKAVTVMMDPNSTQRYRLEALKFCEEFKEKCPICVPCGLRLAEKTQVAIVRHFGLQILEHVVKFRWNGMSRLEKVYLKNSVMELIANGTLNILEEENHIKDALSRIVVEMIKREWPQHWPDMLIELDTLSKQGETQTELVMFILLRLAEDVVTFQTLPPQRRRDIQQTLTQNMERIFSFLLNTLQENVNKYQQVKTDTSQESKAQANCRVGVAALNTLAGYIDWVSMSHITAENCKLLEILCLLLNEQELQLGAAECLLIAVSRKGKLEDRKPLMVLFGDVAMHYILSAAQTADGGGLVEKHYVFLKRLCQVLCALGNQLCALLGADSDVETPSNFGKYLESFLAFTTHPSQFLRSSTQMTWGALFRHEILSRDPLLLAIIPKYLRASMTNLVKMGFPSKTDSPSCEYSRFDFDSDEDFNAFFNSSRAQQGEVMRLACRLDPKTSFQMAGEWLKYQLSTFLDAGSVNSCSAVGTGEGSLCSVFSPSFVQWEAMTLFLESVITQMFRTLNREEIPVNDGIELLQMVLNFDTKDPLILSCVLTNVSALFPFVTYRPEFLPQVFSKLFSSVTFETVEESKAPRTRAVRNVRRHACSSIIKMCRDYPQLVLPNFDMLYNHVKQLLSNELLLTQMEKCALMEALVLISNQFKNYERQKVFLEELMAPVASIWLSQDMHRVLSDVDAFIAYVGTDQKSCDPGLEDPCGLNRARMSFCVYSILGVVKRTCWPTDLEEAKAGGFVVGYTSSGNPIFRNPCTEQILKLLDNLLALIRTHNTLYAPEMLAKMAEPFTKALDMLDAEKSAILGLPQPLLELNDSPVFKTVLERMQRFFSTLYENCFHILGKAGPSMQQDFYTVEDLATQLLSSAFVNLNNIPDYRLRPMLRVFVKPLVLFCPPEHYEALVSPILGPLFTYLHMRLSQKWQVINQRSLLCGEDEAADENPESQEMLEEQLVRMLTREVMDLITVCCVSKKGADHSSAPPADGDDEEMMATEVTPSAMAELTDLGKCLMKHEDVCTALLITAFNSLAWKDTLSCQRTTSQLCWPLLKQVLSGTLLADAVTWLFTSVLKGLQMHGQHDGCMASLVHLAFQIYEALRPRYLEIRAVMEQIPEIQKDSLDQFDCKLLNPSLQKVADKRRKDQFKRLIAGCIGKPLGEQFRKEVHIKNLPSLFKKTKPMLETEVLDNDGGGLATIFEP
B6: TECR (protein)
chain: MKHYEVEILDAKTREKLCFLDKVEPHATIAEIKNLFTKTHPQWYPARQSLRLDPKGKSLKDEDVLQKLPVGTTATLYFRDLGAQISWVTVFLTEYAGPLFIYLLFYFRVPFIYGHKYDFTSSRHTVVHLACICHSFHYIKRLLETLFVHRFSHGTMPLRNIFKNCTYYWGFAAWMAYYINHPLYTPPTYGAQQVKLALAIFVICQLGNFSIHMALRDLRPAGSKTRKIPYPTKNPFTWLFLLVSCPNYTYEVGSWIGFAIMTQCLPVALFSLVGFTQMTIWAKGKHRSYLKEFRDYPPLRMPIIPFLL
B7: VDAC2 (protein)
chain: MSWCNELRLPALKQHSIGRGLESHITMCIPPSYADLGKAARDIFNKGFGFGLVKLDVKTKSCSGVEFSTSGSSNTDTGKVTGTLETKYKWCEYGLTFTEKWNTDNTLGTEIAIEDQICQGLKLTFDTTFSPNTGKKSGKIKSSYKRECINLGCDVDFDFAGPAIHGSAVFGYEGWLAGYQMTFDSAKSKLTRNNFAVGYRTGDFQLHTNVNDGTEFGGSIYQKVCEDLDTSVNLAWTSGTNCTRFGIAAKYQLDPTASISAKVNNSSLIGVGYTQTLRPGVKLTLSALVDGKSINAGGHKVGLALELEA
B8: PHGDH (protein)
chain: AFANLRKVLISDSLDPCCRKILQDGGLQVVEKQNLSKEELIAELQDCEGLIVRSATKVTADVINAAEKLQVVGRAGTGVDNVDLEAATRKGILVMNTPNGNSLSAAELTCGMIMCLARQIPQATASMKDGKWERKKFMGTELNGKTLGILGLGRIGREVATRMQSFGMKTIGYDPIISPEVSASFGVQQLPLEEIWPLCDFITVHTPLLPSTTGLLNDNTFAQCKKGVRVVNCARGGIVDEGALLRALQSGQCAGAALDVFTEEPPRDRALVDHENVISCPHLGASTKEAQSRCGEEIAVQFVDMVKGKSLTGVVNAQALTSAFSPHTKPWIGLAEALGTLMRAWAGSPKGTIQVITQGTSLKNAGNCLSPAVIVGLLKEASKQADVNLVNAKLLVKEAGLNVTTSHSPAAPGEQGFGECLLAVALAGAPYQAVGLVQGTTPVLQGLNGAVFRPEVPLRRDLPLLLFRTQTSDPAMLPTMIGLLAEAGVRLLSYQTSLVSDGETWHVMGISSLLPSLEAWKQHVTEAFQFHF

system: SLC16A11; assay: SLC16A11 protein-protein interaction study (immunoprecipitation, quantitative mass spectrometry); set-up: species or system human; settings: putative SLC16A11^REF interaction partners; immunoprecipitation from HEK293T cells vs empty vector control; Blandt-Altman
Source text: Alternatively, these variants may result in reduced transport because they disrupt protein-protein interactions responsible for correct SLC16A11 function. To explore this possibility, SLC16A11 was immunoprecipitated from HEK293T cells expressing either REF or T2D risk SLC16A11-V5 or empty vector control and quantitative mass spectrometry was used to define the SLC16A11 interactome.
Another mechanism through which the variants could affect activity is through disruption of protein-protein interactions. To explore this possibility, quantitative mass spectrometry-based protein-protein interaction studies were performed to define the SLC16A11 interactome and evaluate if the T2D risk coding variants alter any interactions.
Beads were then washed once with lysis buffer and three times with wash buffer. After the last wash, residual wash buffer was removed, 10 μL fresh wash buffer was added, and beads were stored at −80° C. until analysis by the Proteomics Platform at the Broad Institute, as detailed in the “Proteomics Methods for SLC16A11 Protein Interaction Studies” below.
The beads from immunopurification were washed once with IP lysis buffer, then three times with PBS, the three different lysates of each replicate were resuspended in 90 uL digestion buffer (2M Urea, 50 mM Tris HCl), 2 ug of sequencing grade trypsin added, 1 hour shaking at 700 rpm. The supernatant was removed and placed in a fresh tube. The beads were then washed twice with 50 uL digestion buffer and combined with the supernatant. The combined supernatants were reduced (2 uL 500 mM DTT, 30 minutes, RT), alkylated (4 uL 500 mM IAA, 45 minutes, dark) and a longer overnight digestion performed: 2 ug (4 uL) trypsin, shake o/n, The samples were then quenched with 20 uL 10% FA and desalted on 10 mg SepPak columns.
Desalted peptides were labelled with iTRAQ reagents according to the manufacturer's instructions (AB Sciex, Foster City, Calif.). Peptides were dissolved in 30 μl of 0.5 M TEAB pH 8.5 solution and labeling reagent was added in 70 ul of ethanol. After 1 h incubation the reaction was stopped with 50 mM Tris/HCl pH 7.5. Differentially labelled peptides were mixed and subsequently desalted on 10 mg SepPak columns.
Reconstituted peptides were separated on an online nanoflow EASY-nLC 1000 UHPLC system (Thermo Fisher Scientific) and analyzed on a benchtop Orbitrap Q Exactive Plus mass spectrometer (Thermo Fisher Scientific). The peptide samples were injected onto a capillary column (Picofrit with 10 μm tip opening/75 μm diameter, New Objective, PF360-75-10-N-5) packed in-house with 20 cm C18 silica material (1.9 μm ReproSil-Pur C18-AQ medium, Dr. Maisch GmbH, r119.aq). The UHPLC setup was connected with a custom-fit microadapting tee (360 μm, IDEX Health & Science, UH-753), and capillary columns were heated to 50° C. in column heater sleeves (Phoenix-ST) to reduce backpressure during UHPLC separation. Injected peptides were separated at a flow rate of 200 nL/min with a linear 80 min gradient from 100% solvent A (3% acetonitrile, 0.1% formic acid) to 30% solvent B (90% acetonitrile, 0.1% formic acid), followed by a linear 6 min gradient from 30% solvent B to 90% solvent B. Each sample was run for 120 min, including sample loading and column equilibration times. The Q Exactive instrument was operated in the data-dependent mode acquiring HCD MS/MS scans (R=17,500) after each MS1 scan (R=70,000) on the 12 top most abundant ions using an MS1 ion target of 3×10^6 ions and an MS2 target of 5×10^4 ions. The maximum ion time utilized for the MS/MS scans was 120 ms; the HCD-normalized collision energy was set to 27; the dynamic exclusion time was set to 20 s, and the peptide match and isotope exclusion functions were enabled.
All mass spectra were processed using the Spectrum Mill software package v6.0 pre-release (Agilent Technologies) which includes modules developed by us for iTRAQ-based quantification. […]

Molecule	BA log fold change
B1	1.09
B2	1.10
B3	1.09
B4	1.11
B5	1.14
B6	1.10
B7	1.14
B8	1.11
